Experimental data published in US20190142971A1, “FORMULATION AND DELIVERY OF MODIFIED NUCLEOSIDE, NUCLEOTIDE, AND NUCLEIC ACID COMPOSITIONS” (ModernaTX, Inc., priority 2013, published 2019).

Test system: Balb-C mice
Test: Example 113: FGF21 mRNA IM with or without electroporation, serum FGF21 (Tables 181, 182)
Assay type: in vivo
Conditions: 5 mg/kg IM
Protocol: The mice undergoing electroporation were subjected to electroporation (EP) using the […]′ instrument (Harvard Apparatus/BTX®, Holliston, Mass.), as outlined in Table 181, immediately after the administration of FGF21 mRNA or the control.
Serum was collected from the mice at 2 hours and 8 hours.

B1: FGF21 modified mRNA: Fibroblast Growth Factor 21 mRNA, SEQ ID NO: 24, 5-methylcytosine and 1-methylpseudouridine, in PBS (nucleic acid)
chain: GGGAAAUAAGAGAGAAAAGAAGAGUAAGAAGAAAUAUAAGAGCCACCAUGGACUCGGACGAGACCGGGUUCGAGCACUCAGGACUGUGGGUUUCUGUGCUGGCUGGUCUUCUGCUGGGAGCCUGCCAGGCACACCCCAUCCCUGACUCCAGUCCUCUCCUGCAAUUCGGGGGCCAAGUCCGGCAGCGGUACCUCUACACAGAUGAUGCCCAGCAGACAGAAGCCCACCUGGAGAUCAGGGAGGAUGGGACGGUGGGGGGCGCUGCUGACCAGAGCCCCGAAAGUCUCCUGCAGCUGAAAGCCUUGAAGCCGGGAGUUAUUCAAAUCUUGGGAGUCAAGACAUCCAGGUUCCUGUGCCAGCGGCCAGAUGGGGCCCUGUAUGGAUCGCUCCACUUUGACCCUGAGGCCUGCAGCUUCCGGGAGCUGCUUCUUGAGGACGGAUACAAUGUUUACCAGUCCGAAGCCCACGGCCUCCCGCUGCACCUGCCAGGGAACAAGUCCCCACACCGGGACCCUGCACCCCGAGGACCAGCUCGCUUCCUGCCACUACCAGGCCUGCCCCCCGCACCCCCGGAGCCACCCGGAAUCCUGGCCCCCCAGCCCCCCGAUGUGGGCUCCUCGGACCCUCUGAGCAUGGUGGGACCUUCCCAGGGCCGAAGCCCCAGCUACGCUUCCUGAUAAUAGGCUGGAGCCUCGGUGGCCAUGCUUCUUGCCCCUUGGGCCUCCCCCCAGCCCCUCCUCCCCUUCCUGCACCCGUACCCCCGUGGUCUUUGAAUAAAGUCUGAGUGGGCGGC
modifications: 5-methylcytosine, 1-methylpseudouridine
protein production with vs without electroporation: increase protein production
